Patent US20220073604A1 (ARGENX BVBA, published 2022)

Tests used:
[1] = target: human IL-6 (as added in the B9 and 7TD1 bioassays) (human, UniProt P05231 30-212); test: cell-based or functional assay
[2] = target: T1, bacterially produced human IL-6 (human, UniProt P05231 30-212); test: SPR; purified Fab over biotinylated IL-6 on streptavidin chip
T1 construct: also called bactIL-6; prokaryotic IL-6
Procedure: From the washing phase the off-rate (kd) was determined, while from the injection phase the on-rate (ka) was calculated using the concentration and off-rate as parameters.

[3] = target: T2, bacterially produced human IL-6 (human, UniProt P05231 30-212); test: SPR (Biacore), periplasmic Fab
T2 construct: Immobilised on the Biacore chip; also called BACT IL-6 (2-1); bactIL-6

[4] = target: T3, eukaryotically produced human IL-6 (human, UniProt P05231 30-212); test: SPR (Biacore), periplasmic Fab
T3 construct: Immobilised on the Biacore chip; also called Euk IL-6; EUK IL-6 (3-1)

[5] = target: T4, cynomolgus monkey IL-6 (cynomolgus monkey, UniProt P79341 28-212, limits assumed); test: SPR (Biacore), periplasmic Fab
T4 construct: Immobilised on the Biacore chip

Binder	Ka [3]	Kd [3]	fold improvement of KD over 28A6 (parental) [3]	fold improvement of ka over 28A6 (parental) [3]	fold improvement of kd over 28A6 (parental) [3]	koff [3]	kon [3]	Ka [4]	Kd [4]	fold improvement of KD over 28A6 (parental) [4]	fold improvement of ka over 28A6 (parental) [4]	fold improvement of kd over 28A6 (parental) [4]	koff [4]	kon [4]	Ka [5]	Kd [5]	fold improvement of KD over 28A6 (parental) [5]	fold improvement of ka over 28A6 (parental) [5]	fold improvement of kd over 28A6 (parental) [5]	koff [5]	also measured
129E11 (germlined variant of 68F2), full-length IgG1 (antibody, V domains shown) VH: EVQLQESGPGLVKPSQTLSLTCTVSGGSITSRYYAWSWIRQPPGKGLEWMGVIDYDGDTYYSPSLKSRVTISVDTSKNQFSLKLSSVTAEDTAVYYCARDPDVVTGFHYDYWGQGTLVTVSS VL: QSALTQPPLVSGSPGQTVTISCAGANNDIGTYAYVSWYQQLPGTAPKLLIYKVTTRASGVPDRFSGSKSGNTASLTISGLQSEDEADYYCASYRNFNNAVFGTGTKLTVL	–	–	–	–	–	–	–	–	–	–	–	–	–	–	–	–	–	–	–	–	IC50, 7TD1 proliferation assay, exp 7.07 [1]: 1.55 pM; IC50, 7TD1 proliferation assay, exp 29.06 [1]: 0.857 pM; Rel. Potency, 7TD1, exp 7.07 [1]: 0.88; Rel. Potency, 7TD1, exp 29.06 [1]: 0.65
Fab 28C6 (Fab, V domains shown, Fab) VH: QVQLVESGGGLVQPGGSLRLSCAASGFTFSNYYMTWVRQAPGKGLEWVSSIYSFSGDTAYADSVKGRFTISRDNAKNTLYLQMNKLKSEDTAVYYCTRDLGGVVVTANGYDYWGQGTQVTVSS VL: DIVMTQTPSSLSASLGDRVTITCQASQSISTELSWYQQKPGQTPKLLIYGASRLQTGVPARFSGSGSGTSFTLTISGLEAEDLATYYCLQDYSWPYSFGSGTRL	–	–	–	–	–	–	–	–	–	–	–	–	–	–	–	–	–	–	–	–	Ka [2]: 4.04e+07 M⁻¹; Kd [2]: 24800 pM; koff [2]: 0.0025 s⁻¹; kon [2]: 101000 M⁻¹ s⁻¹
55E10 (Fab, V domains shown, Periplasmic Fab; Suffix 'g1' not explained; also called 55E10g1) VH: QVQLVESGGGLVQPGGSLRLSCAASGFTFSNYYMTWVRQAPGKGLEWVSSIYSFSGDTAYADSVKGRFTISRDNAKNTLYLQMNSLKSEDTAVYYCTRNLGGVVVTTNGYDYWGQGTQVTVSS VL: DIQMTQSPSSLPTSLGDSVTITCQASQSISDELSWYQQKPGQTPKLLIYGASKLQTGVPSRFSGSGSGTSFTLTISGLEAEDLATYYCLQGYSWPFMFGQGTKVELK	3.18e+09 M⁻¹	315 pM	2.38 fold	0.81 fold	2.92 fold	6.09e-05 s⁻¹	193000 M⁻¹ s⁻¹	2.62e+09 M⁻¹	382 pM	1.52 fold	0.8 fold	1.88 fold	5.59e-05 s⁻¹	146000 M⁻¹ s⁻¹	2.1e+09 M⁻¹	476 pM	11 fold	1.13 fold	9.78 fold	6.88e-05 s⁻¹	kon [5]: 145000 M⁻¹ s⁻¹
55A11 (Fab, V domains shown, Periplasmic Fab; Suffix 'd' of the label not explained; also called 55A11d) VH: QVQLVESGGGLVQPGGSLRLSCAASGFTFSNYYMTWVRQAPGKGLEWVSSIYSFSGDTAYADSVKGRFTISRDNAKNTLYLQMNSLKSEDTAVYYCTRNLGGVVVTTNGYDYWGQGTQVTVSS VL: DIQMTQSPSSLPTSLGDSVTITCQASQSISDELSWYQQKPGQTPKLLIYGASRLQTGVPSRFSGRGSGTSFTLTISGLEAEDLATYYCLQGYSWPFMFGQGTKVELK	2.78e+09 M⁻¹	359 pM	2.09 fold	0.79 fold	2.63 fold	6.76e-05 s⁻¹	188000 M⁻¹ s⁻¹	1.59e+09 M⁻¹	631 pM	0.92 fold	0.55 fold	1.65 fold	6.36e-05 s⁻¹	101000 M⁻¹ s⁻¹	1.77e+09 M⁻¹	566 pM	9.28 fold	1.13 fold	8.24 fold	8.17e-05 s⁻¹	kon [5]: 144000 M⁻¹ s⁻¹
48H1 (Fab, V domains shown, Periplasmic Fab; Suffix 'g2, R4' not explained; also called 48H1g2, R4) VH: QVQLVESGGGLVQPGGSLRLSCAASGFTFSNYYMTWVRQAPGKGLEWVSSIYSFSGDTAYADSVKGRFTISRDNAKNTLYLQMNSLKSEDTAVYYCTRNLGGVVVTTNGYDYWGQGTQVTVSS VL: DVVMTQSPSSLPTSLGDSVTITCQASQSISDELSWYQQKPGQTPKLLIYGASKLQTGVPSRFSGSGSGTSFTLTISGLEAEDLATYYCLQGYSWPFMFGQGTKVELK	2.93e+09 M⁻¹	341 pM	2.2 fold	0.87 fold	2.53 fold	7.04e-05 s⁻¹	206000 M⁻¹ s⁻¹	1.56e+09 M⁻¹	640 pM	0.91 fold	0.58 fold	1.54 fold	6.8e-05 s⁻¹	106000 M⁻¹ s⁻¹	1.18e+09 M⁻¹	845 pM	6.21 fold	0.88 fold	7.11 fold	9.46e-05 s⁻¹	kon [5]: 112000 M⁻¹ s⁻¹
55C11 (Fab, V domains shown, Periplasmic Fab; Suffix 'f' not explained; also called 55C11f) VH: QVQLVESGGGLVQPGGSLRLSCAASGFTFSNYYMTWVRQAPGKGLEWVSSIYSFSGDTAYADSVKGRFTISRDNAKNTLYLQMNSLKSEDTAVYYCTRNLGGVVVTTNGYDYWGQGTQVTVSS VL: DIQLTQSPSSLSASLGDSVTITCQASQSISDELSWYQQKPGQTPKLLIYGASKLQTGVPSRFSGSGSGTSFTLTISGLEAEDLATYYCLQGYRWPFMFGQGTKVELK	3.29e+09 M⁻¹	304 pM	2.46 fold	0.96 fold	2.56 fold	6.94e-05 s⁻¹	228000 M⁻¹ s⁻¹	3.1e+09 M⁻¹	323 pM	1.8 fold	1.1 fold	1.62 fold	6.47e-05 s⁻¹	201000 M⁻¹ s⁻¹	3.2e+09 M⁻¹	313 pM	16.8 fold	2.23 fold	7.56 fold	8.9e-05 s⁻¹	kon [5]: 285000 M⁻¹ s⁻¹
Fab 18F8 (Fab, V domains shown, Fab) VH: EVQLVESGGGLVQPGGSLRLSCAASGFTFSRNAMSWVRQAPGKGLEWVSAINSGGGSTSYADSVKGRFTISRDNAKNTLYLQMNSLKPEDTAVYYCAKEGYTGWKDPMYDYWGQGTQVTVSS VL: QSALTQPSALSVTLGQTAKITCQGGSLGSRYAHWYQQKPGQAPVLVIYDDDSRPSGIPERFSGSSSGGRATLTISGAQAEDEGDYYCQSADTSEHIVFGGGTHLTVLG	–	–	–	–	–	–	–	–	–	–	–	–	–	–	–	–	–	–	–	–	Ka [2]: 6.18e+07 M⁻¹; Kd [2]: 16200 pM; koff [2]: 0.000784 s⁻¹; kon [2]: 48400 M⁻¹ s⁻¹
